Assay results from patent US20100222251A1, “MIXTURE COMPRISING AN AMYLIN PEPTIDE AND A PROTRACTED INSULIN” (Novo Nordisk A/S, priority 2007, published 2010).

Experiment: Solubility versus pH curves (centrifugation, reverse HPLC)
Type: physicochemical
Method: Solubility versus pH curves were measured in the following way. A formulation was prepared and aliquotes were adjusted to pH values in the desired range by adding HClO4 or HCl and NaOH. These samples were left equilibrating at room temperature for 2-3 days. Then the samples were centrifuged. A small aliquot of each sample was withdrawn for reverse HPLC analysis for determination of the concentration of the proteins in solution. The pH of each sample was measured after the centrifugation, and the concentration of each protein was depicted versus the measured pH.

pH of full precipitation (below physiological pH) (Example 2 mix, 0.6 mM GlyA21 ArgB31 ArgB32 human insulin, 0.46 mM Zn(Ac)2, 30 mM phenol, 50 μM pramlintide) | Molecule | pH of complete precipitation (below physiological pH) (Example 1, 0.6 mM GlyA21 ArgB31 ArgB32 human insulin, 0.46 mM Zn(Ac)2, 30 mM phenol) | precipitation versus pH compared to formulation of the insulin analogue alone (Example 2 mix, 0.6 mM insulin analogue, 0.46 mM Zn(Ac)2, 30 mM phenol, 50 μM pramlintide) | solubility state at pH 7 (Example 3 mix, pH 7, 0.6 mM GlyA21 ArgB31 ArgB32 human insulin, 0.3 mM Zn(Ac)2, 30 mM phenol, 100 μM pramlintide) | pH above which completely precipitated (FIG. 1, 0.6 mM GlyA21 ArgB31 ArgB32 human insulin, 0.46 mM Zn(Ac)2, 30 mM phenol)
– | GlyA21 ArgB31 ArgB32 human insulin | < 7.4 pH | not changed | completely precipitated | > 6.5 pH
< 7.4 pH | CC[C@H](C)[C@H](NC(=O)[C@@H]1CCCN1C(=O)CNC(=O)[C@H](Cc1ccccc1)NC(=O)[C@H](CC(N)=O)NC(=O)[C@H](CC(N)=O)NC(=O)[C@H](CO)NC(=O)[C@H](CO)NC(=O)[C@H](Cc1c[nH]cn1)NC(=O)[C@@H](NC(=O)[C@H](CC(C)C)NC(=O)[C@H](Cc1ccccc1)NC(=O)[C@H](CC(N)=O)NC(=O)[C@H](C)NC(=O)[C@H](CC(C)C)NC(=O)[C@H](CCCNC(=N)N)NC(=O)[C@H](CCC(N)=O)NC(=O)[C@@H](NC(=O)[C@H](C)NC(=O)[C@@H]1CSSC[C@H](NC(=O)[C@@H](N)CCCCN)C(=O)N[C@@H](CC(N)=O)C(=O)N[C@@H]([C@@H](C)O)C(=O)N[C@@H](C)C(=O)N[C@@H]([C@@H](C)O)C(=O)N1)[C@@H](C)O)C(C)C)C(=O)N[C@@H](CC(C)C)C(=O)N1CCC[C@H]1C(=O)N1CCC[C@H]1C(=O)N[C@H](C(=O)N[C@@H](CC(N)=O)C(=O)N[C@H](C(=O)NCC(=O)N[C@@H](CO)C(=O)N[C@@H](CC(N)=O)C(=O)N[C@H](C(=O)N[C@@H](Cc1ccc(O)cc1)C(N)=O)[C@@H](C)O)C(C)C)[C@@H](C)O [pramlintide, Pro25 Pro28 Pro29-h-amylin] | – | – | – | –
